Test results: patent publication US20210188980A1 (SHANGHAI EPIMAB BIOTHERAPEUTICS, published 2021)

T1: recombinant human LAG-3-his protein (Novoprotein) (human, UniProt P18627 23-450)
T1 construct: Bought; also called huLAG-3; not shown: His tag
T1 sequence (looked up): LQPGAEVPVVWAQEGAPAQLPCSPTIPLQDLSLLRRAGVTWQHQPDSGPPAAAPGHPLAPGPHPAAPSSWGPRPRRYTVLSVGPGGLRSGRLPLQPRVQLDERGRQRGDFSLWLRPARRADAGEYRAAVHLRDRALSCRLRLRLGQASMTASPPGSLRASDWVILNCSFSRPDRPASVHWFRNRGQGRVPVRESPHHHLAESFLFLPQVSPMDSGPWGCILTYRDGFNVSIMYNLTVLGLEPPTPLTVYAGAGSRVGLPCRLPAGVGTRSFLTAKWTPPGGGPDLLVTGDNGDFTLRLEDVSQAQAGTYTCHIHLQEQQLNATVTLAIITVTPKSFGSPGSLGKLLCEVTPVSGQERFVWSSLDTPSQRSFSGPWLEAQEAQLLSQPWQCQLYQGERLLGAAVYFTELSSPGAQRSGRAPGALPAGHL


target: T1, recombinant human LAG-3-his protein …; experiment: BLI Octet, Ab on AHC sensor, huLAG-3-his; test group 1
Procedure: All 18 humanized antibodies (Table 34) and a chimeric antibody having the parental murine VH and VL domains (mAb747c) were ranked by dissociation rate constant (koff). Briefly, antibodies were characterized for affinities and binding kinetics by Octet®RED96 biolayer interferometry (Pall ForteBio LLC). Antibodies were captured by Anti-hIgG Fc Capture (AHC) Biosensors (Pall) at a concentration of 100 nM for 30 seconds. Sensors were then dipped into running buffer (1× pH7.2 PBS, 0.05% Tween 20, 0.1% BSA) for 60 seconds to check baseline. Binding was measured by dipping sensors into a single concentration of recombinant human LAG-3-his protein (Novoprotein). Dissociation was followed by dipping sensors into running buffer for 1200 seconds. The association and dissociation curves were fitted to a 1:1 Langmuir binding model using FortéBio Data Analysis software (Pall). In each test group, the off-rates of antibodies were able to be compared with that of mAb747c. The off-rate ratios were calculated by the off-rate of antibody to that of mAb747c of its group and were compared all together. The lower the ratio was, the higher was the affinity of the antibody.

koff [s⁻¹]	off-rate ratio to that of mAb747c [%]	Binder
0.00925	682	HumAb747-43 (antibody, human IgG1, V domains shown, humanized mAb747; human IgG1/kappa constant domains) VH: EVQLVQSGAEVKKPGATVKISCKVSDFNIKDDYMHWVQQAPGKGLEWIGWIVPENGNTEYASKFQGRVTITADTSTDTAYLELSSLRSEDTAVYYCTVYGDYWGQGTTVTVSS VL: DIQMTQSPSSLSASVGDRVTITCRASQEISGYLSWLQQKPGKAIKSLIYAASTLDSGVPSRFSGSRSGTDFTLTISSLQPEDFATYYCLQYASYPLTFGQGTKLEIK
0.0108	797	HumAb747-45 (antibody, human IgG1, V domains shown, humanized mAb747; human IgG1/kappa constant domains) VH: EVQLVQSGAEVKKPGATVKLSCTASDFNIKDDYMHWVQQAPGKGLEWIGWIVPENGNTEYASKFQGRVTITADTSTDTAYLELSSLRSEDTAVYYCTVYGDYWGQGTTVTVSS VL: DIQMTQSPSSLSASVGDRVTITCRASQEISGYLSWLQQKPGKAIKSLIYAASTLDSGVPSRFSGSRSGTDFTLTISSLQPEDFATYYCLQYASYPLTFGQGTKLEIK
0.0109	801	HumAb747-46 (antibody, human IgG1, V domains shown, humanized mAb747; human IgG1/kappa constant domains) VH: EVQLVQSGAEVKKPGATVKLSCTASDFNIKDDYMHWVKQAPGKGLEWIGWIVPENGNTEYASKFQGRATITADTSTNTAYLELSSLRSEDTAVYYCTVYGDYWGQGTTVTVSS VL: DIQMTQSPSSLSASVGDRVTITCRASQEISGYLSWLQQKPGKAIKSLIYAASTLDSGVPSRFSGSRSGTDFTLTISSLQPEDFATYYCLQYASYPLTFGQGTKLEIK
0.011	809	HumAb747-44 (antibody, human IgG1, V domains shown, humanized mAb747; human IgG1/kappa constant domains) VH: EVQLVQSGAEVKKPGATVKLSCKASDFNIKDDYMHWVQQAPGKGLEWIGWIVPENGNTEYASKFQGRVTITADTSTDTAYLELSSLRSEDTAVYYCTVYGDYWGQGTTVTVSS VL: DIQMTQSPSSLSASVGDRVTITCRASQEISGYLSWLQQKPGKAIKSLIYAASTLDSGVPSRFSGSRSGTDFTLTISSLQPEDFATYYCLQYASYPLTFGQGTKLEIK

target: T2, human PD-1 ECD/Fc fusion protein (human); experiment: BLI Octet, immobilized huPD-1-Fc, Ab analyte
T2 construct: also called huPD-1/Fc; HuPD-1 ECD/Fc
From the text: All 21 humanized antibodies and the chimeric antibody (mAb719c) were characterized by binding ELISA and affinity determination using Octet® RED96 biolayer interferometry system (Pall FortéBio LLG), using a biosensor having immobilized human PD-Fc as the antibody target. Rate constants were derived by making kinetic binding measurements at five different concentrations of antibody.

T2 sequence (chain, as listed by the source limits assumed): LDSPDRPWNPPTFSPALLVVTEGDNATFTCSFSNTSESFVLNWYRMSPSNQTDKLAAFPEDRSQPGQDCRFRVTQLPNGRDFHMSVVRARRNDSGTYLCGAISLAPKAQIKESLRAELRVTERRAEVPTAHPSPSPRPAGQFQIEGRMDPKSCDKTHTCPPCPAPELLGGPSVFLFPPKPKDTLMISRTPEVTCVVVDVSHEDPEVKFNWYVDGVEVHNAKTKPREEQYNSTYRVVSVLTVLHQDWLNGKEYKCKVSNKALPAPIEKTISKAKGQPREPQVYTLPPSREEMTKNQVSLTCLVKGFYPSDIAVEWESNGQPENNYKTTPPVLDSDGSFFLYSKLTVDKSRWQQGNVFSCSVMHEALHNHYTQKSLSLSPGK

Kd [nM]	koff [s⁻¹]	kon [M⁻¹ s⁻¹]	Binder
< 0.103	< 1e-05	97400	mAb719c (antibody, V domains shown) VH: EVKLVESGGGLVKPGGSLKLSCTASGFSFSSHLMSWVRQTPEKRLEWVAAISGGGADTYYPDSVKGRFTISRDNAKNTLYLQMRSLRSEDTALYYCTRQILAFDSWGQGTTLTVSS VL: DIQMNQSPSSLSVSLGDTITITCHASQNIYVWLNWYQQKPGNIPKLLIYKASNLHTGVPSRFSGGGSGTGFTLTISSLQPEDIATYYCQQGQSYPWTFGGGTKLEIK
0.46	4.9e-05	107000	HumAb719-8 (antibody, human IgG1, kappa, L234A L235A, V domains shown, humanized mAb719) VH: EVQLLESGGGLVQPGGSLRLSCAASGFTFSSHLMSWVRQAPGKGLEWVSAISGGGADTYYPDSVKGRFTISRDNSKNTLYLQMNSLRAEDTAVYYCAKQILAFDSWGQGTTVTVSS VL: DIQMNQSPSSLSASVGDRVTITCHASQNIYVWLNWYQQKPGKAPKLLIYKASNLHTGVPSRFSGSGSGTDFTFTISSLQPEDIATYYCQQGQSYPWTFGGGTKVEIKR
0.844	5.81e-05	68800	HumAb719-12 (antibody, human IgG1, kappa, L234A L235A, V domains shown, humanized mAb719) VH: EVQLLESGGGLVQPGGSLRLSCAASGFSFSSHLMSWVRQAPGKRLEWVAAISGGGADTYYPDSVKGRFTISRDNSKNTLYLQMNSLRAEDTAVYYCTRQILAFDSWGQGTTVTVSS VL: DIQMNQSPSSLSASVGDRVTITCHASQNIYVWLNWYQQKPGKAPKLLIYKASNLHTGVPSRFSGSGSGTDFTFTISSLQPEDIATYYCQQGQSYPWTFGGGTKVEIKR
0.601	6.26e-05	104000	HumAb719-21 (antibody, human IgG1, kappa, L234A L235A, V domains shown, humanized mAb719; also called HuniAb719-21) VH: EVQLLESGGGLVQPGGSLRLSCAASGFSFSSHLMSWVRQAPGKRLEWVAAISGGGADTYYPASVKGRFTISRDNSKNTLYLQMNSLRAEDTAVYYCTRQILAFDAWGQGTTVTVSS VL: DIQMNQSPSSLSASVGDRVTITCHASQNIYVWLNWYQQKPGKIPKLLIYKASNLHTGVPSRFSGSGSGTDFTFTISSLQPEDIATYYCQQGQSYPWTFGGGTKVEIKR
